Results from patent US20230331868A1 (Seagen, published 2023).

Key:
[1] = target: T1, bovine submaxillary mucin (bovine); test: ELISA on BSM-coated wells; antibody from one liter production
T1 construct: Natural mucin preparation; also called BSM
Procedure: (§1) For BSM ELISA analysis, antibodies were screened over a concentration range of 0 to 100 nM on bovine submaxillary mucin (BSM) coated wells. A subset of wells were treated with mild periodate solution before antibody binding to remove the side chain on terminal sialic acid residues (destroying the STn antigen). Optical densities of periodate and non-periodate-treated wells were determined and log transformed then fit to a nonlinear regression model to obtain a dose response curve. Optical density values obtained from periodate-treated wells were subtracted from non-periodate treated wells to obtain a periodate-sensitive STn binding curve and corresponding EC₅₀ values.
Based on the results of characterization experiments, two antibodies from each clone group were selected for one liter expression and resulting antibodies were tested again according to the same procedures (see results presented in the following Table).

[2] = target: T1, bovine submaxillary mucin; test: ELISA on BSM-coated wells; periodate-sensitive signal
Procedure: as §1

Binder | EC50 [1] [nM] | EC50 [2] [nM]
Humanized 2G12-2B2 VL2,VH2 (antibody, V domains shown, also called Hu2G12-2B2,L2H2; Hu2G12-2B2 L2H2) VH: QVQLVQSGAEVKKPGASVKISCKASGYTFTDHAIHWVRQAPGQGLEWIGYFSPGNDDIKYNEKFRGRVTLTADKSSSTAYMELRSLRSDDTAVYFCKRSLSTPYWGQGTLVTVSS VL: DIVMTQSPDSLAVSLGERVTMSCKSSQSLLNRGNHKNYLTWYQQKPGQPPKLLIYWASTRESGVPDRFSGSGSGTDFTLTISSLQAEDVAVYYCQNDYTYPYTFGQGTKVEIK | 1.82 | 2.9
Humanized 3F1 VL1,VH1 (antibody, V domains shown, also called Hu3F1,L1H1; Hu3F1 L1H1) VH: QVQLVQSGAEVKKPGASVKVSCKASGYTFTDHAIHWVRQAPGQGLEWMGYISPGNGDIKYNEKFKDRVTMTADKSSSTAYMQLRSLRSDDTAVYFCKRSLLALDYWGQGTLVTVSS VL: DIQMTQSPSSLSASVGDRVTITCKASQDVGTNIAWYQQKPGKAPKVLIYSASTRHTGVPSRFSGSGSGTDFTLTISSLQPEDFATYFCQQYSSFPLTFGQGTKVEIK | 0.86 | 1.8
